Laboratory results: the DeepSol protein solubility set

Assay: soluble on expression in E. coli; label from the status in PepcDB or PDB records

Row | Sequence | soluble on expression in E. coli
1 | MIEIKDKQLTGLRFIDLFAGLGGFRLALESCGAECVYSNEWDKYAQEVYEMNFGEKPEGDITQVNEKTIPDHDILCAGFPCQAFSISGKQKGFEDSRGTLFFDIARIVREKKPKVVFMENVKNFASHDNGNTLEVVKNTMNELDYSFHAKVLNALDYGIPQKRERIYMICFRNDLNIQNFQFPKPFELNTFVKDLLLPDSEVEHLVIDRKDLVMTNQEIEQTTPKTVRLGIVGKGGQGERIYSTRGIAIGLSAYGGGIFAKTGGYLVNGKTRKLHPRECARVMGYPDSYKVHPSTSQAYKQFGNSVVINVLQYIAYNIGSSLNFKPY | soluble
2 | MIEITVNDRLGKKVRIKCNPSDTIGDLKKLIAAQTGTRWEKIVLKKWYTIYKDHITLMDYEIHEGFNFELYYQ | not soluble
3 | MIEMLLYEDTRMRAVEILRSLPIGNSGVSGLVQLAATLGASVEFRPSIPPFPESLSKKMNKTQKYTSTQMSQKFDNASHSPTK | not soluble
4 | MIETLEENLEKVFKAIRSLIIEDMAKDMPMLALTLELLQSIPGIGLISAVTILAEIGDFSAFSKPGKLVAYFGIDPSVMQSGEFTGTQNKMSKRGSRLLRRVLFTIALANIRTKRDKTACNPVLMEYYKNKCQSKPKKVALGAVMRKLVNYIFAVLRDRKPYELRSPQEHAQMLAAKHTAA | not soluble
5 | MIFSVRGEVLEVALDHAVIEAAGIGYRVNATPSALATLNQGSQARLVTAMVVREDSMTLYGFSDAENRDLFLALLSVSGVGPRLAMATLAVHDAAALRQALADSDVASLTRVPGIGRRGAERIVLELADKVGPVGASGLTVGTAADGNAVRGSVVEALVGLGFAAKQAEEATDQVLDGELGKDGAVATSSALRAALSLLGKTR | soluble
6 | MIFTYNKEHVGDVLMVIVKDSKGAKLNCERKGKVTRIFLEKNKETVAWNIFAVSNLLDLNGNGQVFLTDEELAVLNAELAKEGFEEKLENNAAAKFVVGEIVEMVAHPDSDHLNICQVKIAEDKTVQIVAGAPNARVGLKTIVALPGAMMPSGGLIFPGNLRGEKSFGMLCSPRELALPKAPQKRGIIELSTDAVIGQAFDAGKHWKGLEHHHHHH | not soluble
7 | MIFVGNFIQDEKGKGLRIGFVHYRPFDETVGMNLPEETIRQMGALVDEIPEPEQREGKIPVMYYNPETNTVYYEYEDKPLSLEEEIKYLKELNAELIYQLMMKGAL | not soluble
8 | MIGLMKGLAYTLKELTREKVTYDYPHEPLPLPDRFRGIQKFYPEKCIVCNQCVNICPTECIQLTGKKHPDPTKKGKVIETYNINFEICILCDLCTEVCPTEAIVMTNNFELAEYSRDALYKDLAWLDENDTNIRRENKP | not soluble
9 | MIGVASSAVFDLLASDAVFQSQGEEEYRKFQQKNLHVPLPKGIAFPFIKRLLSVNDLSVDPTDPLVEVILLPRNDPDTGLRVLKTIEHYELGMTRAIFMQGKSPYEYIPALNIALFLSGDKKDVEAAIRAGYPAGQVLDSKFEDDETDKTLRIAFDFDGVLAGDESETIMQASGLSEFHSHEVKNVMQPHNPGPLKEFMVRISKIQSVEEKHKKLNPKYENRIRVSIVTARNAPSHERAMNTLKSWGVMANDAFFLGGIEKGKILSVLKPHIFFDDQSGHLKSTSAVAPSVHIPFGITNHVSTVDAIEPEADQVQQVV | not soluble
10 | MIIKVIPVGPIAVNCSVVADEKSGEAIIIDPGAEAEKILEAVKDFKVVGIVATHGHIDHVGQVGKLKELFDVPFYMNPLDKFLINDEIWSGFASYIGAVPCPEPDVEISEGDVIRVGDVEFKVLHTPGHTPGLCCLYEEKRRVLIAGDLLFKGSVGRWDLPGGNLVELKKSVKRVLTELPQDTLVICGHYDETTIGQERAFNPFAGELLNG | soluble
11 | MIILDNSIQTKKRTDSLSKLITVNTLGPEGTSSEYAAKHFISNFTLLQGLNSKLSLHDTFESCIERTLQSPLEYTIVPHAYDGIKHFYMRPDLQLLQIFRCDTPMYGLAVRPDFEFRDDMLDTSVIVSHPSPINLIKYFTRKDVRFKLVNSTSQAARKVKEGLYDIALTNELARQKYGLTFVKTFKSIPMSWSLFGKGDVDDENLEHHHHHH | not soluble
12 | MIIMYAIGIGDNKEEVLKAYEKLKEEGIEVELIDNPKLLVDKLLDGEIDGAVRGSLSSSKVILYLRERIGKFYRASILKNPFTNGIFLLSPVGIDDISEDKNERIKDKIRIIEFASNFLKNYNIKAKVAVLSGGRLGDLGRNKVVDETIYEAEEIVEHFKGNVDIIHNGILIEEYLKDGYNIIIAVDGITGNLIFRCLGLICKIPGYGAVILSDKNVNFIDTSRNANWERYYNAIKFLIGGDFG | soluble
13 | MIIRNVRILICMNTIYYEAHNNLYLNLTNRCSADCIFCIRNFADGVYGYNLRLSKEPSTEEIIEALEGLDLSKYREIVFTGLGEPTLRLDVVLAVTRWLKNQGLRVRLDTNGHAALINPKLDVIAELKKAGLDSVSVSLNAESEEKYNKLCRPVHKNAYRAMLDFVRGAKEAGISTRVTVVKIPEIDVEKCRKVSEELGSDFHIRLLSEAASQEIRE | not soluble
14 | MIKGTGHMIVNIANDRGMSIDSIRKTIKESVLIAYKKYFGSNENAFIKFDDDTGDLSVYAKKKIVKEVKDSLLEILEKDISKENIVEGDYAYIEINPKVFDRLSIQVAKQRTKNDLQGIEDNEILSEFKSKLNKVVIGYVQQNRNGDLYVNLGNTDGIIPKKYQSPLEHHHHHH | not soluble
15 | MIKHESSQPLRVAVAQCRIDWEDKHANLRRMERLAEETAGMADVLFFPEMMTTGFSMNVQALAEPFEEGETIMSLKRVTARHGLALSATMAVRENGKFYNRAYFVTPEGEVFHQDKRHLFRVGGEHEVMTPAQERRIFNYRGWKIFIIPCYDLRFPVWCTNTDLEYDLLVCMANWPEPRRAVWQTLLQARAMENYAYVCGINRVGEDGIGLRYTGDSAILSPRGEYLATCAEGEEKVLYHTLDKGAMQRFRDKFPAWMDMDSFVINYDTDLHP | not soluble
16 | MIKKITISDLIRMGDEKEREWFMFHAEVERIFNDTEIVGIKYQATITYVIGELDEDVLNTVFESNWNKTAEVLKKHEIEVEDIKIDKNEKKVEIKLKTSGIVYREGLFEFEDIKELLKDVLARKIEEAWISVLQEHGYILEHHHHHH | soluble
17 | MIKRVFIDTDIILDVALAREPFFTASKIILAMAENNIIIGNISSNCVANIYYILRKSGGDNKARKFILNIVKYITVIVINHRNVLDSLRSKFSDFEDALQHSSAVENQCEYIITRNIEDYKNAKIKVLLPEEFIGMFLEHHHHHH | not soluble
18 | MIKVAIIGAENVGKSTLMNALLGGKFSEVSETPGTTKGIIKRAFGKIKLPKTMKNPFGGADELVLIDTAGLFDPEKEIRGKVLSEEKFKELIKEIVNADVIIHMIDATKGLHRGMEKLHYMLKFRYEKPIIVVINKIDLVSREELERLRELVKKRLEQEPILLSLVTYEGFNELLKALTYYAQYVE | soluble
19 | MILAVLQARMGSSRLPGKSMATLQGEPMIVRQLERLRGARCLSKIIVATSQDPADDALAGFLVSRGNTVHRGAGADILARIARCADAISAVSHVVRLKGDAPFMDPGVVDDAVRMALASGADYTSNRVHRTYPAGLEVEVIKAGVLRQAAAEERDPTARISPTAAIRNQPERWRQAHLRAARDCSRLDWRVKTAADLAFARSVYDALHPGDPDFRMGDVLDLLENRQDIARFAALEHHHHHH | not soluble
20 | MILLKSEHGGKRKEMRQDDLMGPNHFSLRIMYKIIIYTYPVSLYAVKELNLSKTFSISALGILNSNSNRSPAKKQTFFSACVAKSYSSFFISICILDLASHL | soluble
21 | MILMAIGLLMGSYYAVEWYKGKSSAQELTNEEIKSFKNIQHNQLPYETLVTSQVPSSQTEHKEGEKVAMLNIPKLKKKFSIYWGADDATLKKGVGMFVSDVTTTPSGGGHTVLSGHRDTVFTDLGQLKEKDTLVLEYDNKTYTYEIQKIWITHADDRTVIIKKEEPILTLTTCYPFDYIGDAPDRYIIEAKLTGSYSK | not soluble
22 | MINEHYIPQAVILANGEYPAHELPLRLLAEAQFVVCCDGAANEYISRGHTPDVIIGDGDSLLPEYKKRFSSIILQISDQETNDQTKAVHYLQSKGIRKIAIVGATGKREDHTLGNISLLVEYMRSGMEVRTVTDYGTFIPVSDTQSFASYPGQQVSIINFGAKGLKAEGLFYPLSDFTNWWQGTLNEAIADEFTIHCTGEYLVFLAY | soluble
23 | MINIETPTYYTATKKYELSFPSLETDLDADVVVIGGGFSGINTALELAEHGITDIVVLEARHLGFGGTGRNGGQIMAGIGHDLEKIRKDVGEDGLRAIFEISDLGADIIKGRIEKYAIDADFCHGYGYMGFNARQAKTLQAWEKEFRSLGSPHEIRYLHGAEVRQIIGSDAYGSALLHMGGGHVHSLNLLLGEAKALAGLGARIFEYSPALEVQYGERIRVRTAKGSVTANKLLWACDSFLNRLEPELHRTTINTYAFQMMTEPLPDELIQRISPIRGAYSDIRPVIDYYRVTNENRLLFGAATPFVERIPGDLKAWNRKLMLKIFPYLEHVRIDLAWGGPMACSANLFPQIGSLSGRPNAFFVQGYSGFGVTPSHIVCKVLAEGMSEGSARYDLLSSVRRIPIHGKDHFRPLLLSAGKTWHQLSGYWNGRR | not soluble
24 | MINSSEGKSDNKIIEKATQILSKYPLCDSCLGRCFARLGYGLENKERGRAIKISLMLILDEKIKNHEIGDLSSIKRIMENLGPIAEKWYKLYFSSEFHSHPCYLCQNKIEDIKEDFSDKAFKLLSGLGVKSYVLGVELDEETKKKESKIIEEFTLMYYESIKHEIKREVGKTLSKRGYPPNMDNPEVEIVYRLSDLQVFIISKNIRTFYVYNRLNRNLPISSWFSKQGNEGLNTLLQRKIVFAFSEPTTVRILADYPIVIENEGRDKIDVGGYYIFKVMTVGKKELQAISAAKPTMRKYRVTVYSTSSLSDAIRVYGNIYDLYIDAKSFSELNEKLSKLKSQYEIIVLSVDLIDVKGRIKDIIENYLKSFLEHHHHHH | not soluble
25 | MIPVKFKGATFGRLVKLEFEILRLGELKIDDISEFNTKDIKLEIRATSSGIKLIGVWEGDISEVGEAIKRALDESMKLRERLLRKMRNKVERIRKTLTEMGFSEESIGYGDAIRFTKRIGEYEVAIVVSSRDDIVRVEVYGGNKKLLAPELEAFFESVDIEELEIYDVDEDGREERVVINLELPKTDEKPEKRIIEAVKVLENILMA | soluble
26 | MIQFKDSYKHYGANGREVTALQPLNLEIRAGEVFGIIGHSGAGKSTMLRMINRLEEPSGGHLLINGQDITVLDRMGLRALRRQIGMIFQHFNLLSSYTVAGNVAFPLKLTGASDAKINARVAELLAWVGLEAHANTYPAQLSGGQKQRVGIARALATRPQILLCDEVTSALDPQTTSTVLQLLARINRELGLTIVLITHEMDVIRRICDRVAVLDTGRLVEIGLVTDVFLHPQHPTTRSFVMETEHIDTSALDQDFALVKGRIVRLTFIGTDTYLPLLGRVARETGVDYNILSGRIDRIKETPYGQLTVALSGGDPVAAQAAFAAAGIHIEELRA | not soluble
27 | MIQMSSNDSSEVIRQCLQVLESITSDSSVPRNIRRSVNEIMDILNNESEPLFLRAASSISILEDISNDPNLPLHTRTLIWNLSSQLETIPVDE | not soluble
28 | MIRAVFFDFVGTLLSVEGEAKTHLKIMEEVLGDYPLNPKTLLDEYEKLTREAFSNYAGKPYRPIRDIEEEVMRKLAEKYGFKYPENFWEIHLRMHQRYGELYPEVVEVLKSLKGKYHVGMITDSDTEYLMAHLDALGIKDLFDSITTSEEAGFFKPHPRIFELALKKAGVKGEEAVYVGDNPVKDCGGSKNLGMTSILLDRKGEKREFWDKCDFIVSDLREVIKIVDELNGQ | soluble
